Measurements as given in patent publication US20110201104A1 (SUNGKYUNKWAN UNIVERSITY FOUNDATION FOR CORPORATE …, published 2011).

B1: 3D8 VH protein (heavy-chain variable domain of anti-DNA antibody 3D8) (other)
VH: EVQLQQSGPELVKPGASVKMSCKASGYTFTSYVMHWVKQKPGQGLEWIGYINPYNDGTKYNEKFKGKATLTSDKSSSTAYMELSSLTSEDSAVYYCARGAYKRGYAMDYWGQGTSVTVSS
notes: Isolated single VH domain of mouse (MRL-lpr/lpr) IgG2a/kappa antibody 3D8; It was expressed in E. coli from vector pIg20H-3D8 VH and purified on IgG-sepharose
B2: 3D8 VL protein (light-chain variable domain of anti-DNA antibody 3D8) (other)
VL: DIVMSQSPSSLAVSAGEKVTMSCKSSQSLFNSRTRKNYLAWYQQKPGQSPKLLIYWASTRESGVPDRFTGSGPGTDFTLTISSVQAEDLAVYYCKQSYYHMYTFGSGTKLEIKRAD
notes: Isolated single VL domain of mouse (MRL-lpr/lpr) IgG2a/kappa antibody 3D8; It was expressed in E. coli from vector pIg20L-3D8 VL and purified on IgG-sepharose; This domain was immobilized on the CM5 chip in the SPR assay

Target: the molecule itself
Test: size exclusion chromatography (HPLC, TSK G3000SWXL), phosphate buffer pH 7.4; self-association
Protocol: 0.02 ml of a protein (conc. 5-20 μM) was injected into a TSK G3000SWXL column (TosoHaas, Japan) and a phosphate buffer solution (50 mM sodium phosphate/150 mM NaCl, pH 7.4) was flowed therein at a flow rate of 0.7 ml/min and the chromatogram of the proteins was obtained from the absorbance at 280 nm.

| Protein | binding result |
| --- | --- |
| B1 | no binding (tested: 5-20 µM) |
| B2 | no binding (tested: 5-20 µM) |
